The text below walks through data of patent US20180312587A1 (ADURO BIOTECH HOLDINGS EUROPE B V, published 2018).

Test [1] concerns the target T1, hSIRPα expressed on primary human cells (human, UniProt P78324 31-504).
T1 construct: whole, on cells; also called hSIRPα on primary human CD14+ monocytes; on primary human granulocytes
As to the kind of experiment: flow cytometry, blockade of DyLight488-hCD47/Fc binding to CD14+ enriched monocytes, donor 1. As for the experimental part:
In addition, the ability of hSIRPα.50A to block the interaction between hSIRPα and recombinant hCD47/Fc-protein was assessed. For this purpose, CD14+ monocytes were isolated from Ficoll-purified human peripheral blood mononuclear cells (PBMCs) using RosetteSep human monocyte enrichment cocktail (Stemcell). The percentage of monocytes present after the enrichment was determined by flow cytometry on the FACSVerse (BD Biosciences) based on CD14 staining using an APC-Cy7-conjugated mouse-anti-human CD14 detection antibody (BD Biosciences). […] After this labeling procedure, cells were washed two times, resuspended in PBS/1% BSA containing 0.1 μg/mL DAPI (BioLegend), and analysed by flow cytometry on the FACSVerse (BD Biosciences). Data were processed and analysed with FlowJo V10 software (FlowJo, LLC).
To assess the blocking ability of hSIRPα.50A, CD14+ enriched monocytes cells were seeded in 96-well round bottomed tissue culture plates and incubated for 45 minutes with FcR Blocking Reagent (Miltenyi Biotec) and hSIRPα.50A antibody (200 μg/mL and dilutions thereof) in PBS/1% BSA at 4° C. […] After this labeling procedure, cells were washed two times, resuspended in PBS/1% BSA containing 0.1 μg/mL DAPI (BioLegend), and analysed by flow cytometry on the FACSVerse (BD Biosciences). Data were processed and analysed with FlowJo V10 software (FlowJo, LLC).
In general terms: A flow cytometer gives signals particle by particle.

Another test concerns the target T2, human SIRPα variant 1 (human, UniProt P78324 31-504).
T2 construct: full length ORF on transfected CHO-K1 or HEK293 cells; entry includes the signal peptide; also called hSIRPαV1; SIRPαV1
As to the kind of experiment: flow cytometry, blockade of DyLight488-hCD47/Fc binding to U-937 cells. The protocol:
hCD47 blockade was assessed by flow cytometry for the full panel of humanized hSIRPα.40A antibodies. To this end, the U-937 (ATCC CRL-1593.2) monocyte cell line was used as the source of hSIRPα in the assay. U-937 cells were seeded in 96-well round bottomed tissue culture plates and incubated for 45 minutes with FcR Blocking Reagent (Miltenyi Biotec) and the parental or humanized hSIRPα.40A antibody variants (20 μg/mL and dilutions thereof) in PBS/1% BSA at 4° C. […] After this labeling procedure, cells were washed two times, resuspended in PBS/1% BSA containing 0.1 μg/mL DAPI (BioLegend), and analysed by flow cytometry on the FACSVerse (BD Biosciences). Data were processed and analysed with FlowJo V10 software (FlowJo, LLC) and plotted using GraphPad Prism 6 (GraphPad Software, Inc.).
As depicted in FIG. 18 and the following Table 21, binding of recombinant hCD47 fused to an Fc domain of human IgG1 was monitored in the presence of increasing amounts of the humanized hSIRPα.40A antibody variants. Humanized hSIRPα.40A blocked the hSIRPα/hCD47 interaction, using the flow cytometry-based method described above. […] IC50 values represent the concentration at which half of the inhibition is observed.

The target of another test is T3, human SIRPβ1 (human, UniProt O00241 30-398).
T3 construct: also called hSIRPβ1
The experiment in a line: CELISA, CHO-K1 transfectants. As for the experimental part:
Reactivity was confirmed using CHO-K1 cells (ATCC CCL-61) that had been transiently transfected, using Lipofectamine 2000, with cDNA encoding the full length open reading frame of hSIRPαV1, hSIRPαV2, hSIRPβ1, hSIRPβL, and hSIRPγ subcloned into the pCI-neo vector (Promega, Madison, Wis.). CHO-K1.hSIRPαV1, CHO-K1.hSIRPαV2, CHO-K1.hSIRPβ1, CHO-K1.hSIRPβL, and CHO-K1.hSIRPγ cells were seeded in culture medium (DMEM-F12 (Gibco) supplemented with 5% New Born Calf Serum (BioWest) and Pen/Strep (Gibco)) in 96-well flat-bottom tissue culture plates and incubated at 37° C., 5% CO₂ and 95% humidity for 24 hours. Subsequently, culture medium was removed and cells were incubated for 1 hour at 37° C., 5% CO₂ and 95% humidity with purified hSIRPα antibodies (used at 10 μg/mL and dilutions thereof). Next, cells were washed with PBS-T and incubated for 1 hour at 37° C., 5% CO₂ and 95% humidity with goat-anti-mouse IgG-HRP (Southern Biotech). Subsequently, cells were washed three times with PBS-T and immunoreactivity against hSIRPαV1, hSIRPαV2, hSIRPβ1, hSIRPβL, and hSIRPγ was visualized with TMB Stabilized Chromogen (Invitrogen). Reactions were stopped with 0.5 M H₂SO₄ and absorbances were read at 450 and 610 nm.
The KWAR23 antibody cross-reacts with all members of the SIRP receptor family tested: it binds to hSIRPαV1, hSIRPαV2, hSIRPβ1, hSIRPβL, and hSIRPγ.

T3 sequence (O00241 30-398 limits assumed): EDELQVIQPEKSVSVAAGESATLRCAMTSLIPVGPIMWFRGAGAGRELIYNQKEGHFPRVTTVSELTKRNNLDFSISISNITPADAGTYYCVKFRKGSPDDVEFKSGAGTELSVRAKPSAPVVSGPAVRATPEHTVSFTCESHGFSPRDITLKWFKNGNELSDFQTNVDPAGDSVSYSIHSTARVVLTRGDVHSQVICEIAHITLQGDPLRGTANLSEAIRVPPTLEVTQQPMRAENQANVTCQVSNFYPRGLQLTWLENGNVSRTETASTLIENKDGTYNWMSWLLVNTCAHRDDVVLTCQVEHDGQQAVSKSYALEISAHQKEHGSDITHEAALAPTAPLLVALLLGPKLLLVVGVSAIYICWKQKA
T1 sequence (P78324 31-504): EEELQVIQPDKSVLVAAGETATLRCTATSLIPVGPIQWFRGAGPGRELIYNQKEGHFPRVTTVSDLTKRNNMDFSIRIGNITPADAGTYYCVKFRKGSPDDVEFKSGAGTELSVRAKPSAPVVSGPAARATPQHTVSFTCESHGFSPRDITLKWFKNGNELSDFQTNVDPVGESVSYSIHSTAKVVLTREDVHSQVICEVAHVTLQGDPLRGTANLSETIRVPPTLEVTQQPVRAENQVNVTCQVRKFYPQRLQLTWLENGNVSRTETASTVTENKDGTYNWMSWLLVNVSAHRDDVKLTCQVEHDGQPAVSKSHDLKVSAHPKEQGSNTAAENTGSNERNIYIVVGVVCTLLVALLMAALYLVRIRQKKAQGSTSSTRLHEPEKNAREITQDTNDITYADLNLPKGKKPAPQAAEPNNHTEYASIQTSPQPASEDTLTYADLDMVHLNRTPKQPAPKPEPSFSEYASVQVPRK

B1: hSIRPα.50A (antibody, V domains shown)
VH: QVQLQQSGPELVKPGASVRISCKASGFTFTNYYIHWVKQRPGQGLEWIGWIYPGNVNTKYNEKFKAKATLTADKSSTTAYMQLSSLASEDSAVYFCARPTIIATDFDVWGAGTTVTVSS
VL: DIVMTQSHKFMSTSVGDRVNITCKASQGVGTAVGWYQQKPGQSPRLLIYWASTRHTGVPDRFTGSGSGTDFSLAISNVQSEDLADYFCQQYSTYPFTFGGGTNLEIK
notes: light chain constant domain not tied; also called mouse hSIRPα.50A; hSIRPα.50A.mIgG1
A word on the IC50: it is the concentration that gives 50% inhibition. Read a high IC50 as weaker potency. With B1, the IC50 in test [1] is 4.62 nM.

B2: hSIRPα.40A (antibody, mouse IgG1, kappa, V domains shown)
VH: EVQFQQSGTVLARPGTSVKMSCKASGSTFTSYWMHWVKQGPGQGLQWIGAIYPVNNDTTYNQKFKGKAELTVVTSTSTAYMEVSSLTNEDSAVYYCTRSFYYSLDAAWFVYWGQGTLVTVSA
VL: DIQMTQSPSSLSASLGERVSLTCRASQDIGSRLNWLQQEPDGTIKRLIYATSSLDSGVPKRFSGSRSGSDYSLTISGLESEDFVDYYCLQYASSPFTFGGGTKLEINR
notes: mouse antibody, full chains without signal peptide; also called mouse hSIRPα.40A
As to B2, the 50% inhibitory concentration (IC50) with human SIRPα variant 1 was found to be 1.12 nM.

B3: KWAR23 (antibody, V domains shown)
VH: EVQLQQSGAELVKPGASVKLSCTASGFNIKDYYIHWVQQRTEQGLEWIGRIDPEDGETKYAPKFQDKATITADTSSNTAYLHLSSLTSEDTAVYYCARWGAYWGQGTLVTVSS
VL: QIVLTQSPAIMSASPGEKVTLTCSASSSVSSSYLYWYQQKPGSSPKLWIYSTSNLASGVPARFSGSGSGTSYSLTISSMEAEDAASYFCHQWSSYPRTFGAGTKLELK
The EC50 is the midpoint of the concentration-response curve. A higher EC50 goes with weaker potency. In the test with human SIRPβ1, B3 showed an EC50 of 0.14 nM.
